Experiment: soluble on expression in E. coli; label from the status in PepcDB or PDB records

| Sequence | soluble on expression in E. coli |
| --- | --- |
| MSEGWNIAVLGATGAMGEALLETLAERQFPVGEIYALARNESAGEQLRFGGKTITVQDAAEFDWTQAQLAFFVAGKEATAAWVEEATNSGCLVIDSSGLFALEPDVPLVVPEVNPFVLTDYRNRNVIAVPDSLTSQLLAALKPLIDQGGLSRISVTSLISASAQGKKAVDALAGQSAKLLNGIPIDEEDFFGRQLAFNMLPLLPDSEGSVREERRIVDEVRKILQDEGLMISASVVQAPVFYGHAQMVNFEALRPLAAEEARDAFAQGEDIVLSEENEFPTQVGDASGTPHLSVGCVRNDYGMPEQVQFWSVADNVRFGGALMAVKIAEKLVQEYLY | not soluble |
| MSLATTREEALHIHRENQGKLESKSKVPVRNARDLSLAYSPGVAEPCKEIFEDVETVYEYTMKGNMVAVVSNGTAVLGLGNIGPEASLPVMEGKAVLFKSFAGVDAFPICLRTTDVDQIVETVKLLEPTFGGVNLEDIAAPSCFEIEERLKKETNIPVFHDDQHGTAIVTLAGLINALKLTGKRMSEIKVVANGAGAAGIAIIKLMQRMGVRDIIMCDSKGAIYDGRPYGMNDMKAEVAKWTNRDKIDGGLGDVLKGADVFIGVSVAGALTKEMIENMNDDPIIFAMANPVPEIMPEEAKAAGAKVIGTGRSDFPNQVNNVLAFPGIFRGALDARATHINEEMKVAAVHAIADLVAEEDLDPDYVIPAPFDPRVAPAVAAAVAKTAMETGVARRKVDPAEVEAKTKKLAIIEEGHHHHHH | soluble |
| MEQPKYKRVVLKLSGEALAGKQGFGIQPAVIQSIAKQVKEVVELGVEVAIVVGGGNIWRGKTGSEMGMDRATADYMGMLATVMNALALQDSLEQLGVETRVQTSIEMRQVAEPYIRRRAIRHLEKKRVVIFAAGTGNPYFSTDTTAALRAAEIEADVILMAKNNVDGVYSADPNVDANALKYDELSYLDVIKQGLGVMDSTASSLCMDNNIPLIVFSIMEEGNIKRAVLGENIGTIVRGK | not soluble |
| MPAGANSRTPATDFVQDYAAKRQAQMERARQLREDRLQQQQQQRQSSPKTSGGGNAYNSSPTYTAVPSASGGGTATAAPTSRQPPPPSLNVPRSRHVTPGHDSADSGSSPGKCGDGCVLYIKEQDFKQATQAGIITPDQARQLWAMLSNQIIRVCSPSAHANAVSVSSLLALSNNSYNSSGWAAGGPQSTGGSEFGASISLESLRTSIAYFKREQQRLQQQGGGGAAGAAHGSNAQGRHPLSSSPPALSNTVGQPLSQSRGLPQRQLQYDGNANSDYCRNDGAANDNEQRALGAPMPLRGSGGSGGGGRGGRPAWNSDVEVRHEDDYDDDRNRHAPSSMSTMNSGAAALKKPRTGRTNTVRPAAKGPAASSSPAAGASGVLGTSAQGRGYGSDNEEAGNNAYMPQQPSSAVPRGAKAGGSGAASRRPPASRPTAPPPSSGAPVNLDDVPVGGGGGGGGGMNDWANAYPPGMVPPTSTGGNDAIAAEAAAAAQEPMQECRTCGRRFRISVVMRHEALCRNQANKPRKVFNMREQRLDGVEGIKEVQRTAARSGGGGGGRGAGGGGGRGGGADAAAGAAKGKLPKWKVQHEQFQAAMRAVRQQKEAGGGFGSGRMAPPPAPIPEEYDDRVPCPHCGRKFAQDVAARHIPKCATTIAKPKGIRPIRR | not soluble |
| MAHHHHHHMHNFAKIFRSNFIDINAANKFEIFLKTILRIYKTPARTHLLAHAADISAIYAVRQIYNYMKNDEEGRTVLKEKPLLIRQDIQFNELKKLPKNTLGYKYMKFLETYKLHAHDREVSHFFTDLNYSYILTRYRQIHDIGHVVYNLNISIESEAALKLIELVQTKLPITLLAILVAPFMTPIYRFQYIFKDSLPSNFLSPNFDFTYTDAYNYVDELSIKQYEYNLTDYFHVEKRNDRNFYTKMYQHYFDNINNSSAVRGSIIYGFENKSSNDIIYDQPNREYIFLKNLKKKYLLFQYKPRKNLLRELYPWAYMAGVSTTKPLHSIHIEKWLDKDIDLFRRTYNISPLPDHLNLMAGIN | not soluble |
| GPGSMPAINREELDRRVEQIYDQVVAWRRYIHENPDLSFEEQPTAAYIKGELQKMDAEGRWLHISQPESNCVVADLKGGGGDGPIIALRADIDALPVEELTDVPFASKKQGVMHACGHDTHAAMLLGATKLLLEDAGRIKGTVRLLFQPAEEVPPGGAQMMIEKGCMEGVAMVFAEHIIPMKEGPTGTVLVKRGPFLSSSDTLHVEIIGRGGHASMPESSIDPIAIACLAVTALQQVVSRRMPPSKCPILTITTIASSSDSYNVIPDRVTLKGTLRTQDREVRENAKKAVAEVLHGICGSYGAMCSLNWLPGYDVTVNTDSAYDVGMRVFAQVLPSKDQVVVLSACMSPSEDFSEFAKVAPANYVGIGCYNPGKGCTAVNHNAKFCVDEEAMKVGVKVHYGTIHELLMQ | not soluble |
| MPCDPIGQFAVLECLDYRWYESLDVRLYGSFGLLQLFPELEKAVMRAFARAIPQGDDTPRVIGYYYTIGAESPIAVRKTPGATPHDLGAPNEHVWEKTNYTSYQDCNLWKDLGCDFVLQVYRDFLLTGADDVQFLRDCWDAIVETLDYVKTFDLDGDGIPENSGAPDQTFDDWRLQGVSAYCGGLWLAALAAAIAISDILLQNHQDSATKEHLLYQKSTYETWLTKSLPIYQEKLWNGKYYRLDSESGSDVVMADQLCGQFYANLLELPDIVPSDRAISALQTVYDACFLKFYDGQFGAANGVRPDGSPENPKATHPLEVWTGINFGLAAFLVQMGMKDEGFRLTQAVVEQIYNNGLQFRTPEAITAAGTFRASTYLRPMAIWAIYLMIGLEHHHHHH | not soluble |
| MSLKEENYRNQVTEDFEQKKQALPHGDLFTVFSNPDLSVYEQEALMFLYAYMPIGDVTDYSGDYYLENVRLSGQTRTEMPWGDLIPDELFRHFVLPIRVNNENLDDSRRVFYGELKDRVKHLSMKDAILEVNHWCHEKVVYRPSDARTSSPLASVKTAYGRCGEESTFTVAALRSVGIPARQVYTPRWAHTDDNHAWVEAWADGQWYFFGACEPEPVLNLGWFNAPASRGMLMHTKVFGRYTGPEEIMLETPNYTEINVIDNYAPTAKATVTVTDTEGHPVSGAKVEFKIYNYAEFYTVATKYTDAEGKAFLTAGKGDMLVWASRDGKFGYAKLSFGKEDALKLSLDKKVGESYTLPMDIVPPVEGANLPEVTPEQRAENDHRMTQEDSIRNAYVATMMTDEQAKEWVNGLYGNILQPETMKDKLAAFLVASRGNHQTLKDFLSAIRKEKKHISWEEMRGMWLLENISAKDLRDVTLDVLNDHLKNTSDGEKTDTDLVKRALLNPRIANEMLTPYKKILYDAISEAVLKSAPVDAAHDAKALIEWCRKEIKIDNELNSQQIPVSPMGVWKSRVADEKSRDIFFVAAARSIGIPAWIDEVTGKVQYVSDGLSPQDVNFETSQSTQSCTGMLKASYTPIRSLSDPKYYSHFTISKFKNGTFQLLNYDEGDVDMGGGATWSNLLKNGVKLDEGYYMMVTGTRLASGAVLSNTTFFTIEPDKTTTVDLVMRESKDQVQVIGNFNSEATYRPVGGTDLQSILQTCGRGYFVVAVLGVGQEPTNHALRDIAALRSEFEQWGRKMVFLFPSEEQYKKFNTHEFKDLPSTIVYGIDVDNSIQKQIVDAMKLNQSTLPVFIIADTFNRVVFVSQGYTIGLGEQLMKVVHGEGHHHHHH | soluble |
| AGKPVLHYFNARGRMECIRWLLAAAGVEFEEKFIQSPEDLEKLKKDGNLMFDQVPMVEIDGMKLAQTRAILNYIATKYDLYGKDMKERALIDMYSEGILDLTEMIGQLVLCPPDQREAKTALAKDRTKNRYLPAFEKVLKSHGQDYLVGNRLTRVDIHLLEVLLYVEEFDASLLTPFPLLKAFKSRISSLPNVKKFLQPGSQRKPPMDAKQIQEARKAFKIQ | soluble |
| GSMAISDPPNSSSVPLEGNGTILVKGNVTIIVEGNADITVKGDATTLVEGNQTNTVNGNLSWKVAGTVDWDVGGDWTEKMASMSSISSGQYTIDGSRIDIGSVEGYIPEAPRDGQAYVRKDGEWVFLSTFLVEHHHHHH | soluble |
| MKRAVVVFSGGQDSTTCLVQALQQYDEVHCVTFDYGQRHRAEIDVARELALKLGARAHKVLDVTLLNELAVSSLTRDSIPVPDYEPEADGIPNTFVPGRNILFLTLAAIYAYQVKAEAVITGVCETDFSGYPDCRDEFVKALNHAVSLGMAKDIRFETPLMWIDKAETWALADYYGKLDLVRNETLTCYNGIKGDGCGHCAACNLRANGLNHYLADKPTVMAAMKQKTGLR | not soluble |
| LPLCDSLIIWLQTFKTASPCQDVKQLTNGVTMAQVLHQIDVAWFSESWLSRIKDDVGDNWRIKASNLKKVLHGITSYYHEFLGQQISEELIPDLNQITECADPVELGRLLQLILGCAVNCEKKQEHIKNIMTLEESVQHVVMTAIQELMSK | soluble |

Source: the DeepSol protein solubility set
